Data: publication PMC3390797, “Regulation of ASIC channels by a stomatin/STOML3 complex located in a mobile vesicle pool in sensory neurons” (Open Biology, 2012)

T1: Strep-tagged STOML3-AmCyan1 (stomatin-like protein-3, wild type) (mouse, UniProt Q6PE84 1-287)
T1 construct: Stomatin-like protein-3 (STOML3), mouse; Made from the STOML3-EGFP plasmid 'described previously' by cloning into pAmCyan1-N1 with a Strep tag; also called STOML3-Strep; STOML3-CFP; source: CHO cells, transiently transfected; in lysate (co-IP) and in live cells (FRET)
T1 sequence (looked up): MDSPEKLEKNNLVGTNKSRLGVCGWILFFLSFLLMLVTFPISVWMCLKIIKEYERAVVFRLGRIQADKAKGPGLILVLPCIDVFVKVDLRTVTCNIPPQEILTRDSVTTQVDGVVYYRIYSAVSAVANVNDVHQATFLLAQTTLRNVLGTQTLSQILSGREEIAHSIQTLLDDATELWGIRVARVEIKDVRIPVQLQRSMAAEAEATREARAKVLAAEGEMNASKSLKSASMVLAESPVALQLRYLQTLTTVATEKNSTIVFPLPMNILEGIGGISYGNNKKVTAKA


Molecular target: T1, Strep-tagged STOML3-AmCyan1 …
Assay: FRET or BRET; three-cube FRET imaging of CHO cells co-expressing the AmCyan1 (CFP) and EYFP fusions; apparent FRET efficiency, calibrated with two fluorophore-tandem constructs
Conditions: partners not purified

apparent FRET efficiency (mean, cell-averaged) [%]	Binder
13.9 ± 0.73	EYFP-tagged ASIC1b (natural protein, mouse, UniProt Q6NXK8-2 1-559, looked up, source: CHO cells, transiently transfected, in live cells) MPIQIFCSVSFSSGEEAPGSMGDIWGPHHHHRQQQDSSESEEEEEKEKESGMELDEGDSPRDLVAFANSCTLHGASHVFVEGGPGPRQALWAVAFVIALGAFLCQVGDRVAYYLSYPHVTLLDEVATTELVFPAVTFCNTNAVRLSQLSYPDLLYLAPMLGLDESDDPGVPLAPPGPEAFSGEPFNLHRFYNRSCHRLEDMLLYCSYCGGPCGPHNFSVVFTRYGKCYTFNSGQDGRPRLKTMKGGTGNGLEIMLDIQQDEYLPVWGETDETSFEAGIKVQIHSQDEPPFIDQLGFGVAPGFQTFVSCQEQRLIYLPSPWGTCNAVTMDSDFFDSYSITACRIDCETRYLVENCNCRMVHMPGDAPYCTPEQYKECADPALDFLVEKDQEYCVCEMPCNLTRYGKELSMVKIPSKASAKYLAKKFNKSEQYIGENILVLDIFFEVLNYETIEQKKAYEIAGLLGDIGGQMGLFIGASILTVLELFDYAYEVIKHRLCRRGKCQKEAKRNSADKGVALSLDDVKRHNPCESLRGHPAGMTYAANILPHHPARGTFEDFTC
15.4 ± 0.65	EYFP-tagged ASIC4 (natural protein, mouse, UniProt Q7TNS7 1-539, looked up, source: CHO cells, transiently transfected, in live cells) MPIEIVCKIKFAEEDAKPKEKEAGDEQSLLGAAQGPAAPRDLATFASTSTLHGLGRACGPGPHGLRRTLWALALLTSLAAFLYQAASLARGYLTRPHLVAMDPAAPAPVAGFPAVTLCNINRFRHSALSDADIFHLANLTGLPPKDRDGHRAAGLRYPEPDMVDILNRTGHQLADMLKSCNFSGHHCSASNFSVVYTRYGKCYTFNADPQSSLPSRAGGMGSGLEIMLDIQQEEYLPIWRETNETSFEAGIRVQIHSQEEPPYIHQLGFGVSPGFQTFVSCQEQRLTYLPQPWGNCRAESELREPELQGYSAYSVSACRLRCEKEAVLQRCHCRMVHMPGNETICPPNIYIECADHTLDSLGGGSEGPCFCPTPCNLTRYGKEISMVKIPNRGSARYLARKYNRNETYIRENFLVLDVFFEALTSEAMEQQAAYGLSALLGDLGGQMGLFIGASILTLLEILDYIYEVSWDRLKRVWRRPKTPLRTSTGGISTLGLQELKEQSPCPSRGRAEGGGASSLLPNHHHPHGPPGSLFEDFAC
13.1 ± 0.49	EYFP-tagged ASIC2b (natural protein, rat, UniProt Q62962-2 1-563, looked up, source: CHO cells, transiently transfected, in live cells) MSRSGGARLPATALSGPGRFRMAREQPAPVAVAAARQPGGDRSGDPALQGPGVARRGRPSLSRTKLHGLRHMCAGRTAAGGSFQRRALWVLAFCTSLGLLLSWSSNRLLYWLSFPSHTRVHREWSRQLPFPAVTVCNNNPLRFPRLSKGDLYYAGHWLGLLLPNRTARPLVSELLRGDEPRRQWFRKLADFRLFLPPRHFEGISAAFMDRLGHQLEDMLLSCKYRGELCGPHNFSSVFTKYGKCYMFNSGEDGKPLLTTVKGGTGNGLEIMLDIQQDEYLPIWGETEETTFEAGVKVQIHSQSEPPFIQELGFGVAPGFQTFVATQEQRLTYLPPPWGECRSSEMGLDFFPVYSITACRIDCETRYIVENCNCRMVHMPGDAPFCTPEQHKECAEPALGLLAEKDSNYCLCRTPCNLTRYNKELSMVKIPSKTSAKYLEKKFNKSEKYISENILVLDIFFEALNYETIEQKKAYEVAALLGDIGGQMGLFIGASLLTILELFDYIYELIKEKLLDLLGKEEEEGSHDENMSTCDTMPNHSETISHTVNVPLQTALGTLEEIAC
13.4 ± 0.52	EYFP-tagged ASIC2a (natural protein, rat, UniProt Q62962-1 1-512, looked up, also called ASIC2a-YFP; source: CHO cells, transiently transfected, in live cells) MDLKESPSEGSLQPSSIQIFANTSTLHGIRHIFVYGPLTIRRVLWAVAFVGSLGLLLVESSERVSYYFSYQHVTKVDEVVAQSLVFPAVTLCNLNGFRFSRLTTNDLYHAGELLALLDVNLQIPDPHLADPTVLEALRQKANFKHYKPKQFSMLEFLHRVGHDLKDMMLYCKFKGQECGHQDFTTVFTKYGKCYMFNSGEDGKPLLTTVKGGTGNGLEIMLDIQQDEYLPIWGETEETTFEAGVKVQIHSQSEPPFIQELGFGVAPGFQTFVATQEQRLTYLPPPWGECRSSEMGLDFFPVYSITACRIDCETRYIVENCNCRMVHMPGDAPFCTPEQHKECAEPALGLLAEKDSNYCLCRTPCNLTRYNKELSMVKIPSKTSAKYLEKKFNKSEKYISENILVLDIFFEALNYETIEQKKAYEVAALLGDIGGQMGLFIGASLLTILELFDYIYELIKEKLLDLLGKEEEEGSHDENMSTCDTMPNHSETISHTVNVPLQTALGTLEEIAC
14.4 ± 0.51	EYFP-tagged ASIC1a (natural protein, mouse, UniProt Q6NXK8-1 1-526, looked up, source: CHO cells, transiently transfected, in live cells) MELKTEEEEVGGVQPVSIQAFASSSTLHGLAHIFSYERLSLKRALWALCFLGSLAVLLCVCTERVQYYFCYHHVTKLDEVAASQLTFPAVTLCNLNEFRFSQVSKNDLYHAGELLALLNNRYEIPDTQMADEKQLEILQDKANFRSFKPKPFNMREFYDRAGHDIRDMLLSCHFRGEACSAEDFKVVFTRYGKCYTFNSGQDGRPRLKTMKGGTGNGLEIMLDIQQDEYLPVWGETDETSFEAGIKVQIHSQDEPPFIDQLGFGVAPGFQTFVSCQEQRLIYLPSPWGTCNAVTMDSDFFDSYSITACRIDCETRYLVENCNCRMVHMPGDAPYCTPEQYKECADPALDFLVEKDQEYCVCEMPCNLTRYGKELSMVKIPSKASAKYLAKKFNKSEQYIGENILVLDIFFEVLNYETIEQKKAYEIAGLLGDIGGQMGLFIGASILTVLELFDYAYEVIKHRLCRRGKCQKEAKRNSADKGVALSLDDVKRHNPCESLRGHPAGMTYAANILPHHPARGTFEDFTC
15.5 ± 0.67	EYFP-tagged ASIC3 (natural protein, rat, UniProt O35240 1-533, looked up, source: CHO cells, transiently transfected, in live cells) MKPRSGLEEAQRRQASDIRVFASSCTMHGLGHIFGPGGLTLRRGLWATAVLLSLAAFLYQVAERVRYYGEFHHKTTLDERESHQLTFPAVTLCNINPLRRSRLTPNDLHWAGTALLGLDPAEHAAYLRALGQPPAPPGFMPSPTFDMAQLYARAGHSLEDMLLDCRYRGQPCGPENFTVIFTRMGQCYTFNSGAHGAELLTTPKGGAGNGLEIMLDVQQEEYLPIWKDMEETPFEVGIRVQIHSQDEPPAIDQLGFGAAPGHQTFVSCQQQQLSFLPPPWGDCNTASLDPDDFDPEPSDPLGSPRPRPSPPYSLIGCRLACESRYVARKCGCRMMHMPGNSPVCSPQQYKDCASPALDAMLRKDTCVCPNPCATTRYAKELSMVRIPSRASARYLARKYNRSESYITENVLVLDIFFEALNYEAVEQKAAYEVSELLGDIGGQMGLFIGASLLTILEILDYLCEVFQDRVLGYFWNRRSAQKRSGNTLLQEELNGHRTHVPHLSLGPRPPTTPCAVTKTLSASHRTCYLVTRL
